For 37 sequences, protein stability index results are on record in the supplement of paper PMC10567573.

This data set is described as follows: protein stability index of a GFP-peptide fusion (GPS, HEK-293T) (PSI 1-6); higher = more stable. As to conditions: c terminus: a fixed tail appended.

± gives the standard deviation.
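Further: 24-mer peptide tiles fused after GFP, lentivirally expressed, FACS-sorted into six equal bins by GFP/DsRed ratio, decoded by Illumina sequencing, PSI is the read-weighted mean bin number.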

MRSGEPACTMDQARGLDDAAARGG [ZBED3] registered a protein stability index (treatment: DMSO) of 5 ± 0.23 and a protein stability index (treatment: MLN4924 1 uM, 8 h) of 5.06 ± 0.15.
For the sequence GKEFGYFPRDAVQIEEVFISEEIQ [MIA2], the protein stability index turned out to be 3.88 ± 0.42 (treatment: DMSO) and 3.77 ± 0.45 (treatment: MLN4924 1 uM, 8 h).
On the same counts, the results for RSEEAVQVLIKHSADVNARDKNWQ [ANKRD44] are 4.17 ± 0.22 and 4.44 ± 0.33.
For the sequence HATALVEAFRLKQQLHARYVLNLL [PPEF2], the protein stability index is 2.43 ± 0.38 (treatment: DMSO) and 2.6 ± 0.51 (treatment: MLN4924 1 uM, 8 h).
Turning to KELIIFRLVAPTEGSLEWDILEVK [WDR41], the protein stability index worked out at 2.22 ± 0.24 (treatment: DMSO) and 2.21 ± 0.4 (treatment: MLN4924 1 uM, 8 h).
MPQSEEHLLEAEPLSPIQASSVHL: the protein stability index was 4.87 ± 0.17 (treatment: DMSO) and 4.94 ± 0.17 (treatment: MLN4924 1 uM, 8 h).
Regarding RGGRQKYKRRIDAENSPYLNPQLV [ESRRG], the protein stability index came out at 3.59 ± 0.25 (treatment: DMSO) and 3.93 ± 0.21 (treatment: MLN4924 1 uM, 8 h).
Take LQRLDFSVRGYMMSKQRERQLRRR [RETREG3]: the protein stability index (treatment: DMSO) came out at 3.88 ± 0.14 and the protein stability index (treatment: MLN4924 1 uM, 8 h) is 3.92 ± 0.28.
On the same counts, the results for MSHHQEELVPKQPQKRKPQEQLLE [SLC2A12] are 5.25 ± 0.14 and 5.34 ± 0.15.
Consider KVLEALKLKGAEVTYMNMTAYNKG [PLD5], for which the protein stability index was found to be 2.18 ± 0.6 (treatment: DMSO) and 2.42 ± 0.39 (treatment: MLN4924 1 uM, 8 h).
Take EVGKSFERHKLKRQDADAWTLYKI [SMG5]: the protein stability index by setting is: (treatment: DMSO) 2.78 ± 0.4; (treatment: MLN4924 1 uM, 8 h) 2.9 ± 0.32.
Regarding TACKPVIRVPSVPPVPCVPSVPCT [KRT36], the protein stability index is, setting by setting: (treatment: DMSO) 3.15 ± 0.28; (treatment: MLN4924 1 uM, 8 h) 3.27 ± 0.2.
In the case of ASSASEPQGLFVEALSVPLSLCVS [CLPTM1], the protein stability index by setting is: (treatment: DMSO) 2.31 ± 0.2; (treatment: MLN4924 1 uM, 8 h) 2.25 ± 0.36.
On the same counts, the results for DDHSVRVAREDVRESCPPLGLETL [CPXM2] are 4.85 ± 0.37 and 4.92 ± 0.18.
As to VLNEEGICTQKCALNWTDIPVAME [VPS39], the protein stability index is, setting by setting: (treatment: DMSO) 3.43 ± 0.18; (treatment: MLN4924 1 uM, 8 h) 3.39 ± 0.28.
On to LRHKDEEEEDDDDIHITARIESDL [DRICH1], for which the protein stability index (treatment: DMSO) was determined as 5.41 ± 0.12 and the protein stability index (treatment: MLN4924 1 uM, 8 h) came out at 5.37 ± 0.18.
For the sequence SSTSCLMPSKLFAGLVHVKQCIVA [CRYL1], the protein stability index runs as follows: (treatment: DMSO) 2.44 ± 0.31; (treatment: MLN4924 1 uM, 8 h) 2.11 ± 0.25.
As to DPAPLWGPPPAQGSPGDGGLQDQV [EMID1], the protein stability index is 5.22 ± 0.27 (treatment: DMSO) and 5.2 ± 0.26 (treatment: MLN4924 1 uM, 8 h).
The sequence GWYRPPFSRVVHLYRNGKDQDGDQ [MOG] had a protein stability index (treatment: DMSO) of 3.67 ± 0.34 and a protein stability index (treatment: MLN4924 1 uM, 8 h) of 3.73 ± 0.26.
For PEGLDSDFLAVLSDYPSPDISPPI [SLA], the protein stability index worked out at 4.08 ± 0.11 (treatment: DMSO) and 4.14 ± 0.097 (treatment: MLN4924 1 uM, 8 h).
On the same counts, the results for SCMASLWTAPLVMRTTNLDNRCKL [CDC25A] are 2.33 ± 0.084 and 2.43 ± 0.15.
As for VGQSLRIKEQEVCKLQEQLEATVK [SASS6], the protein stability index turned out to be 4.15 ± 0.44 (treatment: DMSO) and 4.26 ± 0.19 (treatment: MLN4924 1 uM, 8 h).
Turning to YFALRKILKQLIADVTLDPETAHP [TRIM39], the protein stability index reads like this: (treatment: DMSO) 4.09 ± 0.2; (treatment: MLN4924 1 uM, 8 h) 4.34 ± 0.21.
For WTPLHLACYFGHRQVVQDLLKAGA [OSBPL1A], the protein stability index reads like this: (treatment: DMSO) 2.61 ± 0.6; (treatment: MLN4924 1 uM, 8 h) 2.64 ± 0.48.
On the same counts, the results for SYLLKSGADKEILTTKGEMPVQLT [ANKRD40] are 3.46 ± 0.38 and 3.55 ± 0.19.
For NGDITSFLLSVYAPGSSVEYQCQN [CFHR2], the protein stability index is, setting by setting: (treatment: DMSO) 2.38 ± 0.58; (treatment: MLN4924 1 uM, 8 h) 2.09 ± 0.24.
On the same counts, the results for FLSDVTAAVKENQMTPTNLAVCLA [DLC1] are 2.72 ± 0.23 and 2.92 ± 0.29.
For LDPASLAWLTEEEPEPAEVTSTSQ [DDIT3], the protein stability index worked out at 5.51 ± 0.17 (treatment: DMSO) and 5.53 ± 0.31 (treatment: MLN4924 1 uM, 8 h).
As to EGFHNYHHSFPYDYSASEYRWHIN [SCD], the protein stability index came out at 2.37 ± 0.18 (treatment: DMSO) and 2.48 ± 0.18 (treatment: MLN4924 1 uM, 8 h).
On to QAGDYSMRVDLRAGDEAVFAQYDS [TNXB], for which the protein stability index is, setting by setting: (treatment: DMSO) 4.43 ± 0.42; (treatment: MLN4924 1 uM, 8 h) 4.2 ± 0.096.
Regarding HAYIHSVQFSHHVFLNLHTLKFYC [USP39], the protein stability index amounted to 3.33 ± 0.42 (treatment: DMSO) and 3.04 ± 0.56 (treatment: MLN4924 1 uM, 8 h).
Consider FYLPSSPNLSLASEDEEEYESGYA [SMG5], for which the protein stability index is 4.55 ± 0.067 (treatment: DMSO) and 4.59 ± 0.21 (treatment: MLN4924 1 uM, 8 h).
On to LTSLHHFMHSRNLYILGNFMQLKC [PNLIPRP1], for which the protein stability index reads like this: (treatment: DMSO) 2.89 ± 0.32; (treatment: MLN4924 1 uM, 8 h) 2.5 ± 0.35.
Consider IVYHPYRPLLQYVQDMGQEDMLLP [CCNC], for which the protein stability index runs as follows: (treatment: DMSO) 2.25 ± 0.57; (treatment: MLN4924 1 uM, 8 h) 1.93 ± 0.34.
On to SSSSLGNKLQTLSPSHKGIAAPHA [ZC2HC1A], for which the protein stability index is, setting by setting: (treatment: DMSO) 3.81 ± 0.22; (treatment: MLN4924 1 uM, 8 h) 3.97 ± 0.26.
Take ELERQRRLLGSVQQDLERSLQDAS [PBXIP1]: the protein stability index by setting is: (treatment: DMSO) 4.62 ± 0.26; (treatment: MLN4924 1 uM, 8 h) 4.46 ± 0.28.
On the same counts, the results for AGRWLWGAQPCLLLPIVPLSWLVW [ADAMTS4] are 2.98 ± 1.5 and 3.24 ± 2.6.
